Measurements as given in US8026218 (UNIVERSITY OF ARIZONA, dated 2011).
Read-outs that look alike come from different tables or passages of the source. Square brackets hold non-standard residues; d marks the D form. Ends that are not written are not given here. * marks the point of attachment. Glc = O-glucosyl on Ser side chain (Ser(OGlu)/Ser(OGlc)); NH(3,5-(CF3)2-benzyl) = FC(F)(F)c1cc(CN*)cc(C(F)(F)F)c1; OBzl(3,5-(CF3)2) = FC(F)(F)c1cc(CO*)cc(C(F)(F)F)c1; Nle = CCCC[C@H](N)C(=O)O

Experiments:
human NK1 receptor [1] = target: T1, human NK1 receptor (human, UniProt P25103 1-407); experiment: competition vs [3H]Substance P, hNK1 CHO cell membranes
T1 construct: whole, on cells; membrane preparations of the transfected cells were used; also called hNK1; human neurokinin-1 receptor
T1 sequence (P25103 whole entry): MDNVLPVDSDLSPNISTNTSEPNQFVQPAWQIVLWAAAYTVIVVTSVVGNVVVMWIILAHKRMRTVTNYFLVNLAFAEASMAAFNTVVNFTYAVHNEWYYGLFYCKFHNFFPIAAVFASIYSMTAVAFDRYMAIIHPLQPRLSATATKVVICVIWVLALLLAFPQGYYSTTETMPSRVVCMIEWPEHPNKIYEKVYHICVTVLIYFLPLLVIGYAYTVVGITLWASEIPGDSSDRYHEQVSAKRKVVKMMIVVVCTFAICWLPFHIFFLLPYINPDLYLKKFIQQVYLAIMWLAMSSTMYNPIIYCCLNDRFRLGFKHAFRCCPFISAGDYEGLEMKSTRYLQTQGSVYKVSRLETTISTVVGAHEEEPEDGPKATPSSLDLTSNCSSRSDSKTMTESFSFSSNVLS

rat NK1 receptor [2] = target: T2, rat NK1 receptor (rat, UniProt P14600 1-407); experiment: competition vs [3H]Substance P, rNK1 CHO cell membranes
T2 construct: whole, on cells; membrane preparations of the transfected cells were used; also called rNK1; rNK-1
T2 sequence (P14600 whole entry): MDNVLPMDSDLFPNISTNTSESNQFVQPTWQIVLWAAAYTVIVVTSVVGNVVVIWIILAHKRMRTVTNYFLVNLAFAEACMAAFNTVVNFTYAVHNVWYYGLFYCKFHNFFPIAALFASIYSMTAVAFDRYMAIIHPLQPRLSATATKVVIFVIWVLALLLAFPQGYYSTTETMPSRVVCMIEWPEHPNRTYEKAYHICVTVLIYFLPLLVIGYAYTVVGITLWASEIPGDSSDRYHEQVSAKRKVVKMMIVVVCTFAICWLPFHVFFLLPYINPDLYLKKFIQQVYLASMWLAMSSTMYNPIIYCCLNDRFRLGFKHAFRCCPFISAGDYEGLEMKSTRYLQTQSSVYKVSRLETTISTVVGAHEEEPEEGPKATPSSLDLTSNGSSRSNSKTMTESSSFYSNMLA

rat NK1 receptor [3] = target: T3, rat NK1 receptor (rat, UniProt P14600 1-407); experiment: competition vs [3H]substance P, membranes of rNK1-transfected CHO cells
T3 construct: whole, on cells; Assayed as membrane preparations of transfected CHO cells; also called rNK1; rNK-1
T3 sequence (P14600 whole entry): as above

rat µ opioid receptor [4] = target: T4, rat µ opioid receptor (rat, UniProt P33535 1-398); experiment: cell-based or functional assay
T4 sequence (P33535 whole entry): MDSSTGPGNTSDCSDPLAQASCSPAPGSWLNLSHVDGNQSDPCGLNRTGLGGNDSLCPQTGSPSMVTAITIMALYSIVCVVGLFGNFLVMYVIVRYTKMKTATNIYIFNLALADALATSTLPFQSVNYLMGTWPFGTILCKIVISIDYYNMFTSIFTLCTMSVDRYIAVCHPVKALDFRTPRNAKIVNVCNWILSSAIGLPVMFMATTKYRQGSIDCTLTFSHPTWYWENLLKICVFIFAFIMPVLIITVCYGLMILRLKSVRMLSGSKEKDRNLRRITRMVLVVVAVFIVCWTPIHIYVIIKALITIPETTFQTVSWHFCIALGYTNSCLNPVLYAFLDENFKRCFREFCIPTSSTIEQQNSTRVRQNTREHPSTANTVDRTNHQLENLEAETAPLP

human δ opioid receptor [5] = target: T5, human δ opioid receptor (human, UniProt P41143 1-372); experiment: cell-based or functional assay
T5 sequence (P41143 whole entry, stated change not applied): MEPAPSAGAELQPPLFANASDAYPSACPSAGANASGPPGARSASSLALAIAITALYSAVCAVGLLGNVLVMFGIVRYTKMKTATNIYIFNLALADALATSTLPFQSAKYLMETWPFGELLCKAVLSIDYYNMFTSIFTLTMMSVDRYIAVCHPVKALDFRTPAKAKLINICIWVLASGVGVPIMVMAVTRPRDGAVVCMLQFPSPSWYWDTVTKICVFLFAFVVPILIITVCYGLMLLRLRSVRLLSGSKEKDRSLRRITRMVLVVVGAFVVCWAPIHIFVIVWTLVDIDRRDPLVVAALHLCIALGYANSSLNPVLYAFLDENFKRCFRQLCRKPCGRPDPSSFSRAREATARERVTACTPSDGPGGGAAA

rat NK1 receptor [6] = target: T3, rat NK1 receptor; experiment: competition vs [3H]substance P, membranes of rNK1-transfected CHO cells; remark: listed apart in the source
human δ opioid receptor [7] = target: T5, human δ opioid receptor; experiment: competition vs [3H]DPDPE, membranes of hDOR-transfected HN9.10 cells
rat µ opioid receptor [8] = target: T4, rat µ opioid receptor; experiment: cell-based or functional assay; remark: listed apart in the source
human δ opioid receptor [9] = target: T5, human δ opioid receptor; experiment: cell-based or functional assay; remark: listed apart in the source
human δ opioid receptor [10] = target: T5, human δ opioid receptor; experiment: competition vs [3H]DPDPE, membranes of hDOR-transfected HN9.10 cells; remark: listed apart in the source
[11] = target: µ opioid receptor of the guinea pig isolated ileum (guinea pig); experiment: cell-based or functional assay
guinea pig NK1 receptor [12] = target: T6, guinea pig NK1 receptor (guinea pig, UniProt P30547 1-407); experiment: cell-based or functional assay
T6 sequence (P30547 whole entry): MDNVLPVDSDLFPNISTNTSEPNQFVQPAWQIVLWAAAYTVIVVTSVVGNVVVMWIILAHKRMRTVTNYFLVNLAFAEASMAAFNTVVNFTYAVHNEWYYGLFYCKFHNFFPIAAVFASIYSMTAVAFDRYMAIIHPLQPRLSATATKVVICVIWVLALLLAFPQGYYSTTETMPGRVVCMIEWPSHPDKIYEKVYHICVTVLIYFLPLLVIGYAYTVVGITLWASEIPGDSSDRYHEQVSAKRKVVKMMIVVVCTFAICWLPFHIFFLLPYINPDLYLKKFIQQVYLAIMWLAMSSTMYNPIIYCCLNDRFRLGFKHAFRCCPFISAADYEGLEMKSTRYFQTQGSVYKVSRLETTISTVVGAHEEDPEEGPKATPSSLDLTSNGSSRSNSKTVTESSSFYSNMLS

rat NK1 receptor [13] = target: T3, rat NK1 receptor; experiment: radioligand competition vs [3H]substance P; reference value of L-732,138 (around 460 nM) is a reported one
guinea pig NK1 receptor [14] = target: T6, guinea pig NK1 receptor; experiment: cell-based or functional assay; remark: listed apart in the source
human δ opioid receptor [15] = target: T5, human δ opioid receptor; experiment: ratio of Ki at rMOR to Ki at hDOR
rat µ opioid receptor [16] = target: T4, rat µ opioid receptor; experiment: competition vs [3H]DAMGO, membranes of rMOR-transfected HN9.10 cells
guinea pig NK1 receptor [17] = target: guinea pig NK1 receptor (guinea pig, UniProt P30547 1-407); experiment: cell-based or functional assay; remark: listed apart in the source
Target sequence in this assay (P30547 whole entry): as above

human δ opioid receptor [18] = target: T7, human δ opioid receptor (human, UniProt P41143 1-372); experiment: cell-based or functional assay; remark: listed apart in the source
T7 sequence (P41143 whole entry, stated change not applied): as the sequence (P41143 whole entry, stated change not applied) above

[19] = target: T8, µ opioid receptor of the guinea pig isolated ileum (guinea pig, UniProt P97266 1-98); experiment: cell-based or functional assay
T8 sequence (P97266 whole entry): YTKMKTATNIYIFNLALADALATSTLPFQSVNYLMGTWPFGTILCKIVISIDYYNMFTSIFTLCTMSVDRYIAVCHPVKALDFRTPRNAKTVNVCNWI

human NK1 receptor [20] = target: T1, human NK1 receptor; experiment: competition vs [3H]Substance P, hNK1 CHO cell membranes; remark: listed apart in the source
human δ opioid receptor [21] = target: T7, human δ opioid receptor; experiment: competition vs [3H]DPDPE, hDOR cell membranes
rat µ opioid receptor [22] = target: T9, rat µ opioid receptor (rat, UniProt P33535 1-398); experiment: competition vs [3H]DAMGO, rMOR cell membranes
T9 construct: whole, on cells; membrane preparations of the transfected cells were used; also called rMOR; MOR
T9 sequence (P33535 whole entry): as the sequence (P33535 whole entry) above

rat NK1 receptor [23] = target: T2, rat NK1 receptor; experiment: competition vs [3H]Substance P, rNK1 CHO cell membranes; remark: listed apart in the source
rat µ opioid receptor [24] = target: T9, rat µ opioid receptor; experiment: cell-based or functional assay; remark: listed apart in the source
human δ opioid receptor [25] = target: T7, human δ opioid receptor; experiment: cell-based or functional assay; remark: listed apart in the source
[26] = target: T8, µ opioid receptor of the guinea pig …; experiment: cell-based or functional assay; remark: listed apart in the source
rat µ opioid receptor [27] = target: T9, rat µ opioid receptor; experiment: cell-based or functional assay; remark: listed apart in the source
rat µ opioid receptor [28] = target: T9, rat µ opioid receptor; experiment: competition vs [3H]DAMGO, rMOR cell membranes; remark: listed apart in the source

B1: TyrDAlaGlyPheNleProLeuSer(OGlu)TrpNHBn(CF3)2 (peptide)
peptide: Y[dA]GF[Nle]PLS(Glc)W-{NH(3,5-(CF3)2-benzyl)}
notes: also called TY055
Human NK1 receptor [1]
  Ki: 0.052 nM
Rat NK1 receptor [2]
  Ki: 34 nM

B2: H-Tyr-D-Ala-Gly-Phe-Met-Pro-Leu-Trp-O-3,5-Bzl(CF3)2 (peptide)
peptide: H-Y[dA]GFMPLW-{OBzl(3,5-(CF3)2)}
modifications: also: TFA salt
notes: TFA salt; also called TY005; TY5
Rat NK1 receptor [3]
  IC50: 6.4 nM
  LogIC50: -8.22
Rat µ opioid receptor [4]
  [35S]GTP-γ-S binding Emax: 45%
Human δ opioid receptor [5]
  [35S]GTP-γ-S binding EC50: 2.9 nM
  [35S]GTP-γ-S binding Emax: 51%
  [35S]GTP-γ-S binding LogEC50: -8.54
Rat NK1 receptor [6]
  Ki: 0.29 nM
  LogIC50: -9
Human δ opioid receptor [7]
  Ki: 2.8 nM
Rat µ opioid receptor [8]
  [35S]GTPγS binding Emax: 46%
Human δ opioid receptor [9]
  [35S]GTPγS binding EC50: 2.9 nM
  [35S]GTPγS binding Emax: 48%
  [35S]GTPγS binding LogEC50: -8.5
Human δ opioid receptor [10]
  Ki: 2.8 nM
  LogIC50: -8.22
[11]
  GPI (µ) opioid agonist IC50: 359 nM
Guinea pig NK1 receptor [12]
  Substance P GPI antagonist Ke: 24.7 nM

B3: H-Tyr-D-Ala-Gly-Phe-Phe-Pro-Leu-Trp-O-3,5-Bzl(CF3)2 (peptide)
peptide: H-Y[dA]GFFPLW-{OBzl(3,5-(CF3)2)}
modifications: also: TFA salt
notes: TFA salt; also called TY003
Rat NK1 receptor [3]
  IC50: 19.3 nM
  LogIC50: -7.72
Rat µ opioid receptor [4]
  [35S]GTP-γ-S binding EC50: 58.7 nM
  [35S]GTP-γ-S binding Emax: 41%
  [35S]GTP-γ-S binding LogEC50: -7.23
Human δ opioid receptor [5]
  [35S]GTP-γ-S binding EC50: 20.8 nM
  [35S]GTP-γ-S binding Emax: 39%
  [35S]GTP-γ-S binding LogEC50: -7.68
Rat NK1 receptor [13]
  fold improvement of rNK1 affinity over L-732,138: 25 fold
Human δ opioid receptor [10]
  Ki: 14.6 nM
  LogIC50: -7.5
Guinea pig NK1 receptor [14]
  fold improvement of Ke in GPI tissue over L-732,138: 12 fold
Human δ opioid receptor [15]
  Ki(µ)/Ki(δ): 1.9
Rat µ opioid receptor [16]
  Ki: 28.3 nM
  LogIC50: -7.22
[11]
  GPI (µ) opioid agonist, % at 1 µM: 7 % at 1 µM
Guinea pig NK1 receptor [12]
  Substance P GPI agonist (A50), contraction relative to KCl: 0 % at 1 µM
  Substance P GPI antagonist Ke: 14.4 nM

B4: TyrDAlaGlyPheNleProLeuTrpNHBn(CF3)2 (peptide)
peptide: YAGFXPLW
modifications: D-Ala at 2; Nle at 5 (written X); C-terminal NH-3,5-Bzl(CF3)2 amide
notes: also called TY045
Guinea pig NK1 receptor [17]
  GPI/LMMP SP antagonist Ke: 40.8 nM
Human δ opioid receptor [18]
  GTP binding EC50: 5 nM
  GTP binding Emax: 125%
[19]
  GPI/LMMP IC50: 463 nM
Human NK1 receptor [20]
  Ki: 0.0028 nM
Human δ opioid receptor [21]
  Ki: 1 nM

B5: TyrDAlaGlyPheNleProSer(OGlu)TrpNHBn(CF3)2 (peptide)
peptide: Y[dA]GF[Nle]PS(Glc)W-{NH(3,5-(CF3)2-benzyl)}
notes: also called TY041
Rat µ opioid receptor [22]
  Ki: 8 nM
Rat NK1 receptor [23]
  Ki: 14 nM
Rat µ opioid receptor [24]
  GTP binding EC50: 18 nM
  GTP binding Emax: 42%
Human δ opioid receptor [25]
  GTP binding EC50: 7.9 nM
  GTP binding Emax: 62%
[26]
  GPI/LMMP IC50: 517 nM
Rat µ opioid receptor [27]
  GTP binding EC50: 18 nM
  GTP binding Emax: 42%
Guinea pig NK1 receptor [17]
  GPI/LMMP SP antagonist Ke: 1.8 nM
Human δ opioid receptor [18]
  GTP binding EC50: 7.9 nM
  GTP binding Emax: 62%
[19]
  GPI/LMMP IC50: 517 nM
Rat µ opioid receptor [28]
  Ki: 8 nM
Rat NK1 receptor [2]
  Ki: 14 nM
